Source: publication PMC7044329

Biological target: transcriptional activation domain of ATF6α
Experiment: affinity purification with mass spectrometry; Mediator enriched from wild-type and MED26 hypomorphic HEK293T cells by binding to the ATF6α transcriptional activation domain (glutathione affinity); semi-quantitative MudPIT

level in Mediator relative to wild-type MED26: 30 to 50%
Substance: mutant MED26 that lacks the NTD (from UniProt O95402 1-600) (natural protein)
